In patent US20210121527A1, “METHODS OF TREATING MINIMAL RESIDUAL CANCER” (ICAHN SCHOOL OF MEDICINE AT MOUNT SINAI, priority 2018, published 2021):

How the values were obtained:
HEp3 HNSCC cells = experiment: ERK/p38 activity ratio, dormancy mRNAs and NR2F1 in HEp3 cells; format: cell-based
Experimental: The effect on the ERK/p38 activity ratio is observed after 2-6 and 24 hours (second through fourth group of columns). In the first 30 minutes, ERK activity is stimulated by BMP7 (first column set). […] Arrows indicate NR2F1 flourescence. Differences in FIG. 13A and FIG. 13B, p<0.05 as calculated using Student's t test.
BMP7-F9 reduces the ERK/p38 activity ratio and induces various mRNAs in the dormancy signature (FIGS. 13A-13C). […] The effect on the ERK/p38 activity ratio is observed after 2-6 and 24 hours (second through fourth group of columns). In the first 30 minutes ERK activity is stimulated by BMP7 (first column set). […] Differences in FIG. 13A and FIG. 13B, p<0.05 as calculated using Student's t test.

T-HEp3 cells [1] = experiment: Cell titer blue proliferation assay; format: cell-based; details: 48 hours
T-HEp3 cells [2] = experiment: T-HEp3 tumors on chicken embryo chorioallantoic membranes (CAM); format: in vivo; details: 24 hours pre-treatment, then 50 ng/ml daily
Experimental: FIG. 14B is a schematic illustration of the in vivo experimental procedure used in FIGS. 14C-14D. T-HEp3 cells were pre-treated for 24 hours with BMP7-F9 in vitro and then inoculated on chicken embryo chorioallantoic membranes (“CAM”s) (FIG. 14C), where they were treated daily in vivo with vehicle or BMP7-F9 (50 ng/ml) prior to collection of the tumors and quantification of number of HEp3 HNSCC cells (FIG. 14D) and levels of P-H3 (FIG. 14E). Arrows in FIG. 14E indicate overlapping P-H3 and DAPI fluorescence.
FIG. 14B is a schematic illustration of the in vivo experimental procedure used in FIGS. 14C-14D. T-HEp3 cells were pre-treated for 24 hours with BMP7-F9 in vitro and then inoculated on chicken embryo chorioallantoic membranes (CAMs) (FIG. 14C), where they were treated daily in vivo with vehicle or BMP7-F9 (50 ng/ml) prior to collection of the tumors and quantification of number of HEp3 HNSCC cells/tumor (FIG. 14D) and levels of P-H3 (FIG. 14E).

HEp3-GFP HNSCC tumors = experiment: HEp3-GFP HNSCC tumor surgery model in NSG mice, local recurrence and lung DCCs; format: in vivo, mouse
Text: FIGS. 15A-15C show the evaluation of BMP7-F9 treatment in a mouse model of disease. FIG. 15A is a schematic illustration of an in vivo experimental procedure used to evaluate the effect of BMP7-F9 on metastasis initiation. […] Tumors were then removed via surgery. 1-2 days after surgery, the adjuvant treatment with BMP7-F9 was continued for another 3, 4, or 6 weeks. Animals were then euthanized and the DCC burden in lung was scored using fluorescence microscopy. […] At those time points, the percentage of local recurrence and DCC incidence was scored. In FIG. 15C, mice were treated as in FIG. 15A, except that the adjuvant treatment was for 4 weeks. The number of GFP positive cells in dissociated lungs was scored following treatment. […] Note that the median of DCC burden drops one log and that BMP-7 apparently cures from DCCs 3 of 7 animals.
Tumors were then removed via surgery. 1-2 days after surgery, the adjuvant treatment with BMP7-F9 was continued for another 4 weeks. Animals were then euthanized and the DCC burden in lung was scored using fluorescence microscopy. […] NSG mice were treated following the protocol in FIG. 15A for 4 weeks. At those time points, the percentage of local recurrence and DCC incidence was scored. The number of GFP positive cells in dissociated lungs was scored following treatment. […] Note that the median of DCC burden drops one log and that BMP-7 apparently cures from DCCs 3 of 7 animals.

[3] = adjuvant treatment only, 3 weeks
[4] = adjuvant treatment only, 6 weeks
[5] = neo-adjuvant and adjuvant treatment, 4 weeks

B1: BMP7-F9: variant of human mature BMP7, homodimer of SEQ ID NO:8 (protein, listed as Homo sapiens)
chain: STGSKQRSQNRSKTPKNQEALRMANVAENSSSDQRQACKKHELYVSFRDLGWQDWIIAPEGYAAGYCEGECAFPLNSYMNATNHALVQTLVHVINPETVPKPCCAPTQLGAISVLYFDDSSNVILKKWRNMVVRACGCH
modifications: homodimer
B1 was tested. Which “DEC2, p53 and p27 mRNAs” value (HEp3 HNSCC cells; 10 ng/ml, 24 hours) did it give?
Its value is “induces DEC2, p53, and p27 mRNAs”.

What about the “nuclear NR2F1 (immunofluorescence)” value (HEp3 HNSCC cells; 10 ng/ml, 24 hours) of the same molecule?
Its value is “induces nuclear accumulation of NR2F1”.

What about the “ERK/p38 activity ratio (Western blot)” value (HEp3 HNSCC cells; 2, 5 and 10 ng/ml, 2-6 and 24 hours) of the same molecule?
The value was “reduces the ERK/p38 activity ratio over control”.

And the “proliferation in vitro (cell titer blue)” value (T-HEp3 cells [1])?
The value was “inhibits their proliferation in vitro”.

And the “growth of T-HEp3 cells in vivo (CAM)” value (T-HEp3 cells [2])?
The value was “induces growth arrest of T-HEp3 cells”.

And the “+DCCs in lungs (animals)” value (HEp3-GFP HNSCC tumors; [3])?
The value was 5.

And the “+local recurrence (animals)” value (HEp3-GFP HNSCC tumors; [3])?
The value was 1.

What about the “DCC incidence (%)” value (HEp3-GFP HNSCC tumors; [3]) of the same molecule?
The value was 50.0%.

And the “Local recurrence incidence (%)” value (HEp3-GFP HNSCC tumors; [3])?
Its value is 9.1%.

And the “Median number of GFP^+/Vimentin^+ tumor cells/lung” value (HEp3-GFP HNSCC tumors; [3])?
The value was 0.62E+04.

What about the “+DCCs in lungs (animals)” value (HEp3-GFP HNSCC tumors; [4]) of the same molecule?
The value was 3.

And the “+local recurrence (animals)” value (HEp3-GFP HNSCC tumors; [4])?
Its value is 0.

And the “DCC incidence (%)” value (HEp3-GFP HNSCC tumors; [4])?
Its value is 42.9%.

What about the “Local recurrence incidence (%)” value (HEp3-GFP HNSCC tumors; [4]) of the same molecule?
Its value is 0.0%.

And the “Median number of GFP^+/Vimentin^+ tumor cells/lung” value (HEp3-GFP HNSCC tumors; [4])?
The value was 0.

What about the “+DCCs in lungs (animals)” value (HEp3-GFP HNSCC tumors; [5]) of the same molecule?
Its value is 4.

What about the “+local recurrence (animals)” value (HEp3-GFP HNSCC tumors; [5]) of the same molecule?
Its value is 3.

What about the “DCC incidence in lungs %” value (HEp3-GFP HNSCC tumors; [5]) of the same molecule?
The value was 57.1%.

And the “Median number of GFP^+/Vimentin^+ tumor cells/lung” value (HEp3-GFP HNSCC tumors; [5])?
The value was 0.02E+04.

What about the “animals apparently cured from DCCs” value (HEp3-GFP HNSCC tumors; [5]) of the same molecule?
Its value is 3 of 7.

What about the local recurrence % (HEp3-GFP HNSCC tumors; [5]) of the same molecule?
The local recurrence % was 42.9%.

What about the “median of DCC burden in lungs” value (HEp3-GFP HNSCC tumors; [5]) of the same molecule?
Its value is “drops one log”.
